# In US20120201809A1 (COVX TECHNOLOGIES IRELAND, published 2012):
# Read-outs that look alike come from different tables or passages of the source.
# B1: 2.12.1.fx antibody (anti-IGF1R antibody) (antibody, human IgG2, kappa, V domains shown)
# VH: QVQLVESGGGLVKPGGSLRLSCAASGFTFSDYYMSWIRQAPGKGLEWVSYISSSGSTRDYADSVKGRFTISRDNAKNSLYLQMNSLRAEDTAVYYCVRDGVETTFYYYYYGMDVWGQGTTVTVSS
# VL: DIQMTQSPSSLSASVGDRVTITCRASQDIRRDLGWYQQKPGKAPKRLIYAASRLQSGVPSRFSGSGSGTEFTLTISSLQPEDFATYYCLQHNNYPRTFGQGTKLVIKR
# Key:
# [1] = target: T1, human IGF1R on cells (mouse 3T3 cells engineered to express human IGF1R); human colon adenocarcinoma Colo205 … (human, UniProt P08069 31-1367); assay: cell-based or functional assay
# [2] = target: T1, human IGF1R on cells (mouse 3T3 cells …); assay: cell-based or functional assay; remark: listed apart in the source
binder,measurement,setting,value
B1,% IGF1R downregulated,[1],36%
same,% IGF1R downregulated,[2],48%
